Experimental data: patent US20240016931A1 (JIANGSU HENGRUI PHARMACEUTICALS, published 2024)

The binders below were run against T1, His-tagged human TSLP antigen (huTSLP-his) (human) (assay: ELISA, coated huTSLP-his;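 further: binding of antibodies to plate-bound TSLP read as absorbance at 450 nm after TMB colour development, EC50 derived from binding curves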).
T1 construct: Secreted from HEK293E and purified on nickel; whole entry named; also called Human TSLP-his

| Binder | EC50 |
| --- | --- |
| hu179-23 (antibody, human IgG1, kappa, V domains shown, IgG1-YTE, kappa) VH: EVQLVQSGAEVKKPGSSVKVSCKASGGTFSNYLIEWVRQAPGQGLEWMGVIDPGNGDTNYNENFKGRVTITADKSTSTAYMELSSLRSEDTAVYYCAREDNTGTAFDYWGQGTTVTVSS VL: DIVMTQSPDSLAVSLGERATINCKASQSVSSDVTWYQQKPGQSPKLLIYYVSDHYTGVPDRFSGSGSGTDFTLTISSLQAEDVAVYYCQQHHRFPLTFGQGTKLEIKR | 0.997 nM |
| hu179-24 (antibody, human IgG1, kappa, V domains shown, IgG1-YTE, kappa) VH: EVQLVQSGAEVKKPGSSVKVSCKASGGTFSNYLIEWVRQAPGQGLEWMGVIDPGNGDTNYNENFKGRVTITADKSTSTAYMELSSLRSEDTAVYYCAREDNTGTAFDYWGQGTTVTVSS VL: DIVMTQSPDSLAVSLGERATINCKASQSVSSDVTWYQQKPGQSPKLLIYYVSNYYTGVPDRFSGSGSGTDFTLTISSLQAEDVAVYYCQQHHRFPLTFGQGTKLEIKR | 0.636 nM |
| hu179-25 (antibody, human IgG1, kappa, V domains shown, IgG1-YTE, kappa) VH: EVQLVQSGAEVKKPGSSVKVSCKASGYTFSNYLIEWVRQAPGQGLEWIGVIDPGNGDTNYNENFKGRATLTADKSTSTAYIELSSLRSEDTAVYYCAREDNTGTAFDYWGQGTTVTVSS VL: DIVMTQSPDSLAVSLGERATINCKASQSVSSDVTWYQQKPGQSPKLLIYEVSNHYTGVPDRFSGSGSGTDFTLTISSLQAEDVAVYYCQQHHRFPLTFGQGTKLEIKR | 0.131 nM |
| hu179-26 (antibody, human IgG1, kappa, V domains shown, IgG1-YTE, kappa) VH: EVQLVQSGAEVKKPGSSVKVSCKASGYTFSNYLIEWVRQAPGQGLEWIGVIDPGNGDTNYNENFKGRATLTADKSTSTAYIELSSLRSEDTAVYYCAREDNTGTAFDYWGQGTTVTVSS VL: DIVMTQSPDSLAVSLGERATINCKASQSVSSDVTWYQQKPGQSPKLLIYYVDNHYTGVPDRFSGSGSGTDFTLTISSLQAEDVAVYYCQQHHRFPLTFGQGTKLEIKR | 0.201 nM |
| hu179-27 (antibody, human IgG1, kappa, V domains shown, IgG1-YTE, kappa) VH: EVQLVQSGAEVKKPGSSVKVSCKASGYTFSNYLIEWVRQAPGQGLEWIGVIDPGNGDTNYNENFKGRATLTADKSTSTAYIELSSLRSEDTAVYYCAREDNTGTAFDYWGQGTTVTVSS VL: DIVMTQSPDSLAVSLGERATINCKASQSVSSDVTWYQQKPGQSPKLLIYYVENHYTGVPDRFSGSGSGTDFTLTISSLQAEDVAVYYCQQHHRFPLTFGQGTKLEIKR | 0.18 nM |
| hu179-28 (antibody, human IgG1, kappa, V domains shown, IgG1-YTE, kappa) VH: EVQLVQSGAEVKKPGSSVKVSCKASGYTFSNYLIEWVRQAPGQGLEWIGVIDPGNGDTNYNENFKGRATLTADKSTSTAYIELSSLRSEDTAVYYCAREDNTGTAFDYWGQGTTVTVSS VL: DIVMTQSPDSLAVSLGERATINCKASQSVSSDVTWYQQKPGQSPKLLIYYVSQHYTGVPDRFSGSGSGTDFTLTISSLQAEDVAVYYCQQHHRFPLTFGQGTKLEIKR | 0.0906 nM |
| hu179-29 (antibody, human IgG1, kappa, V domains shown, IgG1-YTE, kappa) VH: EVQLVQSGAEVKKPGSSVKVSCKASGYTFSNYLIEWVRQAPGQGLEWIGVIDPGNGDTNYNENFKGRATLTADKSTSTAYIELSSLRSEDTAVYYCAREDNTGTAFDYWGQGTTVTVSS VL: DIVMTQSPDSLAVSLGERATINCKASQSVSSDVTWYQQKPGQSPKLLIYYVSEHYTGVPDRFSGSGSGTDFTLTISSLQAEDVAVYYCQQHHRFPLTFGQGTKLEIKR | 0.204 nM |

Now from value to binder:

| EC50 | Binder |
| --- | --- |
| 0.246 nM | hu179-30 (antibody, human IgG1, kappa, V domains shown, IgG1-YTE, kappa) VH: EVQLVQSGAEVKKPGSSVKVSCKASGYTFSNYLIEWVRQAPGQGLEWIGVIDPGNGDTNYNENFKGRATLTADKSTSTAYIELSSLRSEDTAVYYCAREDNTGTAFDYWGQGTTVTVSS VL: DIVMTQSPDSLAVSLGERATINCKASQSVSSDVTWYQQKPGQSPKLLIYYVSNDYTGVPDRFSGSGSGTDFTLTISSLQAEDVAVYYCQQHHRFPLTFGQGTKLEIKR |
| 0.201 nM | hu179-31 (antibody, human IgG1, kappa, V domains shown, IgG1-YTE, kappa) VH: EVQLVQSGAEVKKPGSSVKVSCKASGYTFSNYLIEWVRQAPGQGLEWIGVIDPGNGDTNYNENFKGRATLTADKSTSTAYIELSSLRSEDTAVYYCAREDNTGTAFDYWGQGTTVTVSS VL: DIVMTQSPDSLAVSLGERATINCKASQSVSSDVTWYQQKPGQSPKLLIYYVSNEYTGVPDRFSGSGSGTDFTLTISSLQAEDVAVYYCQQHHRFPLTFGQGTKLEIKR |
| 0.145 nM | hu179-32 (antibody, human IgG1, kappa, V domains shown, IgG1-YTE, kappa) VH: EVQLVQSGAEVKKPGSSVKVSCKASGYTFSNYLIEWVRQAPGQGLEWIGVIDPGNGDTNYNENFKGRATLTADKSTSTAYIELSSLRSEDTAVYYCAREDNTGTAFDYWGQGTTVTVSS VL: DIVMTQSPDSLAVSLGERATINCKASQSVSSDVTWYQQKPGQSPKLLIYYVSNHETGVPDRFSGSGSGTDFTLTISSLQAEDVAVYYCQQHHRFPLTFGQGTKLEIKR |

Each binder was assayed against T2, Fc-tagged human TSLP antigen (huTSLP-Fc) (human, biotin-labeled in the blocking assays) (assay: competition ELISA: blocks TSLP binding to TSLP receptor).
T2 construct: whole entry named; also called recombinant human TSLP-Fc

| Binder | IC50 |
| --- | --- |
| hu199-08 (antibody, human IgG1, kappa, V domains shown, IgG1-YTE, kappa) VH: EVQLVQSGAEVKKPGASVKVSCKASGYTFTTYWMHWVRQAPGQGLEWMGMIDPSDSETTLIQKFKDRVTLTVDKSTSTAYMELSSLRSEDTAVYYCARTLDGYYDYWGQGTTVTVSS VL: DIQMTQSPSSLSASVGDRVTITCRASENIYSYLAWYQQKPGKAPKLLVYFAKTLAEGVPSRFSGSGSGTDFTLTISSLQPEDFATYYCQHHYGTPWTFGGGTKVEIKR | 0.283 nM |
| hu199-01 (antibody, human IgG1, kappa, V domains shown, IgG1-YTE, kappa) VH: EVQLVQSGAEVKKPGASVKVSCKASGYTFTTYWMHWVRQAPGQGLEWMGMIDPSDSETTLIQKFKDRVTMTVDKSTSTAYMELSSLRSEDTAVYYCARTLDGYYDYWGQGTTVTVSS VL: DIQMTQSPSSLSASVGDRVTITCRASENIYSYLAWYQQKPGKAPKLLIYFAKTLAEGVPSRFSGSGSGTDFTLTISSLQPEDFATYYCQHHYGTPWTFGGGTKVEIKR | 0.191 nM |
| hu199-02 (antibody, human IgG1, kappa, V domains shown, IgG1-YTE, kappa) VH: EVQLVQSGAEVKKPGASVKVSCKASGYTFTTYWMHWVRQAPGQGLEWMGMIDPSDSETTLIQKFKDRVTMTVDKSTSTAYMELSSLRSEDTAVYYCARTLDGYYDYWGQGTTVTVSS VL: DIQMTQSPSSLSASVGDRVTITCRASENIYSYLAWYQQKPGKAPKLLVYFAKTLAEGVPSRFSGSGSGTDFTLTISSLQPEDFATYYCQHHYGTPWTFGGGTKVEIKR | 0.219 nM |
| hu199-03 (antibody, human IgG1, kappa, V domains shown, IgG1-YTE, kappa) VH: EVQLVQSGAEVKKPGASVKVSCKASGYTFTTYWMHWVRQAPGQGLEWMGMIDPSDSETTLIQKFKDRVTMTVDKSTSTAYMELSSLRSEDTAVYYCARTLDGYYDYWGQGTTVTVSS VL: DIQMTQSPSSLSASVGDRVTITCRASENIYSYLAWYQQKPGKSPQLLVYFAKTLAEGVPSRFSGSGSGTQFTLTISSLQPEDFATYYCQHHYGTPWTFGGGTKVEIKR | 0.208 nM |
| hu199-04 (antibody, human IgG1, kappa, V domains shown, IgG1-YTE, kappa) VH: EVQLVQSGAEVKKPGASVKVSCKASGYTFTTYWMHWVRQAPGQGLEWMGMIDPSDSETTLIQKFKDRVTMTVDKSTSTAYMELSSLRSEDTAVYYCARTLDGYYDYWGQGTTVTVSS VL: DIQMTQSPSSLSASVGDRVTITCRASENIYSYLAWYQQKPGKAPKLLIYFAKTLAEGVPSRFSGSVSGTDFTLTISSLQPEDFATYYCQHHYGTPWTFGGGTKVEIKR | 0.424 nM |
| hu199-05 (antibody, human IgG1, kappa, V domains shown, IgG1-YTE, kappa) VH: EVQLVQSGAEVKKPGASVKVSCKASGYTFTTYWMHWVRQAPGQGLEWMGMIDPSDSETTLIQKFKDRVTMTVDKSTSTAYMELSSLRSEDTAVYYCARTLDGYYDYWGQGTTVTVSS VL: DIQMTQSPSSLSASVGDRVTITCRASENIYSYLAWYQQKPGKAPKLLVYFAKTLAEGVPSRFSGSVSGTDFTLTISSLQPEDFATYYCQHHYGTPWTFGGGTKVEIKR | 0.473 nM |
